Test results from paper PMC2706832 (Protein expression and purification, 2009).
Like-named read-outs stand apart in the source and are kept apart here. fluorescein‑5‑maleimide = fluorescein-5-maleimide

Columns and labels:
[1] = target: T1, wild-type CCR1 expressed on HEK293 cells (human, UniProt P32246 1-355); assay: cell-based or functional assay
T1 sequence (looked up): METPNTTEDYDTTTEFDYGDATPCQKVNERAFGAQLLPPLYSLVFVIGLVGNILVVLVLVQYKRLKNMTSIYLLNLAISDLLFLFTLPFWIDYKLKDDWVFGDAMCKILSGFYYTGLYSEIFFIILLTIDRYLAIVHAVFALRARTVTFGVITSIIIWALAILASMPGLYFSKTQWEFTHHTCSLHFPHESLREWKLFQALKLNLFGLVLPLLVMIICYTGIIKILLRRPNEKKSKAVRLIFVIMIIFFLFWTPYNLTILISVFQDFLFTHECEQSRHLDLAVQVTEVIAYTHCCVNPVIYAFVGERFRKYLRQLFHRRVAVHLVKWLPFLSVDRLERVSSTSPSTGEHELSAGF

[2] = target: T1, wild-type CCR1 expressed on HEK293 cells; assay: radioligand binding
[3] = target: T2, CCR1 solubilized from HEK293 membranes and purified in detergent/lipid micelles (human, UniProt P32246 1-355); assay: fluorescence polarisation
T2 sequence (looked up): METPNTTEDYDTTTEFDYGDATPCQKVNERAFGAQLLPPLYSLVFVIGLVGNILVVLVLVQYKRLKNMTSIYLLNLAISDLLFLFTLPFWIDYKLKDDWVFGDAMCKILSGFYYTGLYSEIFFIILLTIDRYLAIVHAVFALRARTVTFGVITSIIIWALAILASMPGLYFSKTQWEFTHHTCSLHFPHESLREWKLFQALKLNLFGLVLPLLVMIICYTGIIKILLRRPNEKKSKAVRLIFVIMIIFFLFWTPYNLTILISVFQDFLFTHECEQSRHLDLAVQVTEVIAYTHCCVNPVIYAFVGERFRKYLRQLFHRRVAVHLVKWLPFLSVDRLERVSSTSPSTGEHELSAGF

[4] = target: T2, CCR1 solubilized from HEK293 membranes …; assay: fluorescence polarisation; remark: listed apart in the source
[5] = target: T2, CCR1 solubilized from HEK293 membranes …; assay: fluorescence polarisation; remark: listed apart in the source
[6] = target: T2, CCR1 solubilized from HEK293 membranes …; assay: fluorescence polarisation; remark: listed apart in the source
[7] = target: T2, CCR1 solubilized from HEK293 membranes …; assay: fluorescence polarisation; remark: listed apart in the source

B1: CCL7 (ligand)
chain: not shown
For B1, the “EC50 of calcium mobilization in CCR1-transfected HEK293 cells (FLIPR Calcium 4)” value [1] was 8 nM.

B2: wild-type CCL3 (ligand, UniProt P10147 24-92, looked up)
chain: SLAADTPTACCFSYTSRQIPQNFIADYFETSSQCSKPGVIFLTKRSRQVCADPSEEWVQKYVSDLELSA
An IC50 [2] of 0.9 nM was found for B2 in this work.

B3: CCL14-fluorescein (ligand)
chain: GPYHPSECCFTYTTYKIPRQRIMDYYETNSQCSKPGIVFITKRGHSVCTNPSDKWVQDYIKDMKENC(fluorescein‑5‑maleimide)
A Kd [3] of 35 nM, a Kd [4] of over 1000 nM and a Kd [5] of 21 nM were found for B3 in this work. For the same binder, the Kd [6] was over 1000 nM and the Kd [7] was over 1000 nM.
